What was measured:
[1] = biological target: PltB-Strep; experiment: SEC
[2] = biological target: PltA-CdtB-His6 (Salmonella enterica serovar Typhi) (UniProt Q8Z6A7); experiment: pull-down
[3] = biological target: PltC (untagged, His tag removed); experiment: crystal structure
[4] = biological target: PltC-His6; experiment: SEC

## PltB-Strep (natural protein)
[1]
  stoichiometry N: 5

## PltC (untagged, His tag removed) (natural protein)
[2]
  fold copurified relative to PltB: 2 fold
[3]
  stoichiometry N: 5

## PltC-His6 (natural protein)
[4]
  stoichiometry N: 5

Reference: article PMC8749428
